Results taken from patent US20190352343A1 (AUCKLAND UNISERVICES, published 2019).

Legend:
Mol8 = target: T1, Mol8 (Mobiluncus mulieris); assay: SDS-PAGE of mixed Mol domains, ester bond ligation
T1 construct: also called Mol8 construct
T1 chain: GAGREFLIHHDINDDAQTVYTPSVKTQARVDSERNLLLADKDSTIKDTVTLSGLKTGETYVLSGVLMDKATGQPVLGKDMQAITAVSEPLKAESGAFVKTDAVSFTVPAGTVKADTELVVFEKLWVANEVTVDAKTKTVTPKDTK

Mol9 = target: T2, Mol9 (Mobiluncus mulieris); assay: SDS-PAGE of mixed Mol domains, ester bond ligation
T2 construct: also called Mol9 construct
T2 chain: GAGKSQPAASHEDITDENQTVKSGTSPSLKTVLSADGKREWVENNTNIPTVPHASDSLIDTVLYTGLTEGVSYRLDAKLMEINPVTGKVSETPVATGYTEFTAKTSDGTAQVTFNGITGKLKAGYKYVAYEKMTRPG

B1: Mol10 (other)
chain: GAPDKPVPPPHEDPKDPNQTVVSEHNPGITTTLTDAQAAKGTDGKVISLTRDAQLKDVVRVTQTGLIEGAKYHVFSKLVNQANPDQVVSAGMQEFTATGDQLRSVTVKFTVPKETLQELAGSDPSAEFKLVAYEYLALDSDTDIVNKEATSEIEAVGFK
notes: also called Mol10 construct
B1: no binding (tested: equimolar amounts, 24 h) (Mol8).

B2: Mol11 (other)
chain: GAGKTWAATHADPNDAGQTVTVVKAPKIGTTLKYGQSKTVWVADKVELTDTVEYFNLQPKTKYTLSGNLMGGTSAESLSDTGVKATTEFTTPAAANGAQTVSGTAVVKFTVPREVLERNEKLVAYEYLTIDGNPVASHEDPKDENQTVTSKKP
notes: also called Mol11 domain construct
B2: no binding (tested: equimolar amounts, 24 h) (Mol8); no binding (tested: equimolar amounts, 24 h) (Mol9).
